Source: patent publication US20040146896A1, “Methods and compositions for diagnosing and treating companion animal cancer” (priority 2002, published 2004)

Tests used:
Format in all cases: cell-based
U937 human tumor cells [1] = experiment: Cell Death Detection ELISA apoptosis assay, U937
Method: 4. Cell Death Detection ELISA Plus assay for apoptosis. The assay is based on a quantitative sandwich-enzyme-immunoassay-principle using mouse monoclonal antibodies directed against DNA and histones, respectively. This allows the specific determination of mono- and oligonucleosomes in the cytoplasmatic fraction of cell lysates. Roche kit, Cat. # 1 774 425, was used for this assay. 0.1 ml of U937 or any other types of cells (2×104 ) and 0.1 ml of tissue culture supernatant or other solutions containing apoptosis inducing agents (e.g. TRAIL) were used for this assay in 48-well plate. After 24 or 48 hrs of incubation at 3 7° C., the cells were spun at 2,000 rpm for 10 minutes. Cell pellet was then resuspended in 200 ul lysis buffer and incubated for 30 minutes at room temperature. The cell lysate was then centrifuged at 2,000 rpm for 10 minutes and diluted at 1:10 with incubation buffer. 20 ul of diluted lysate was added to coated plate (MTP from kit) and 80 ul of the immunoreagent was added to each well. MTP was then covered with adhesive cover foil and incubated under gentle shaking for 2 hours at room temperature. The solution was then removed thoroughly by tapping and subsequently rinsed 3 times with 250 ul incubation buffer. 100 ul ABTS solution was added and incubated on a plate shaker at 250 rpm for 15 minutes. Readings at 405 nm and 490 nm (background) were done on ELISA reader. […]

U937 human tumor cells [2] = experiment: Annexin V FACS apoptosis assay, U937
Description: 5. Annexin V apoptosis assay. ApoScreen Annexin V Apoptosis Kit (Cat. No. 10010-02, Southern Biotechnology Assoc. Inc.) was used for this assay. Annexin V detects the change in position of phosphatidy serine (PS) in the cell membrane. In non-apoptotic cells, most phosphatidyl serine molecules are at the inner layer of the plasma membrane. After inducing apoptosis, PS redistributes to the outer layer of the membrane. PS translocation precedes other apoptotic events allowing early detection of apoptosis. 1 ml of U937 cells (2×10^4) or any other types of cells and 1 ml of supernatant or other solutions containing apoptosis inducing agents (e.g. TRAIL) were used for assay in 6-well plate. After 48 hrs of incubation, cells were washed in 2 ml of cold PBS (Phosphate-buffered saline) and resuspended in 100 ul of cold 1× binding buffer. 10 ul of Annexin V-FITC was added to each tube and the tube was gently vortexed and subsequently incubated for 15 minutes in the dark at 4° C. 200 ul of cold 1× binding buffer was added to each tube and 10 ul-of PI was also added to each tube. The staining was then analyzed by flow cytometry.
U937 human tumor cells were grown in the presence or absence of TRAIL proteins produced from conditioned media of transfected 293 cells. The apoptosis of U937 cells induced by conditioned media was measured in this assay. […]

canine cell lines = experiment: Cell Death ELISA apoptosis assay, canine cell lines; details: 100 ng/ml (FIG. 20B and data not shown)
Method: 4. Cell Death Detection ELISA Plus assay for apoptosis. The assay is based on a quantitative sandwich-enzyme-immunoassay-principle using mouse monoclonal antibodies directed against DNA and histones, respectively. This allows the specific determination of mono- and oligonucleosomes in the cytoplasmatic fraction of cell lysates. Roche kit, Cat. # 1 774 425, was used for this assay. 0.1 ml of U937 or any other types of cells (2×104 ) and 0.1 ml of tissue culture supernatant or other solutions containing apoptosis inducing agents (e.g. TRAIL) were used for this assay in 48-well plate. After 24 or 48 hrs of incubation at 3 7° C., the cells were spun at 2,000 rpm for 10 minutes. Cell pellet was then resuspended in 200 ul lysis buffer and incubated for 30 minutes at room temperature. The cell lysate was then centrifuged at 2,000 rpm for 10 minutes and diluted at 1:10 with incubation buffer. 20 ul of diluted lysate was added to coated plate (MTP from kit) and 80 ul of the immunoreagent was added to each well. MTP was then covered with adhesive cover foil and incubated under gentle shaking for 2 hours at room temperature. The solution was then removed thoroughly by tapping and subsequently rinsed 3 times with 250 ul incubation buffer. 100 ul ABTS solution was added and incubated on a plate shaker at 250 rpm for 15 minutes. Readings at 405 nm and 490 nm (background) were done on ELISA reader.

B1: human commercial TRAIL: human TRAIL (Upstate Biotechnology, 100 ng/ml), positive control (protein, UniProt P50591 1-281, looked up)
Tumor necrosis factor ligand …: MAMMEVQGGPSLGQTCVLIVIFTVLLQSLCVAVTYVYFTNELKQMQDKYSKSGIACFLKEDDSYWDPNDEESMNSPCWQVKWQLRQLVRKMILRTSEETISTVQEKQQNISPLVRERGPQRVAAHITGTRGRSNTLSSPNSKNEKALGRKINSWESSRSGHSFLSNLHLRNGELVIHEKGFYYIYSQTYFRFQEEIKENTKNDKQMVQYIYKYTSYPDPILLMKSARNSCWSKDAEYGLYSIYQGGIFELKENDRIFVSVTNEHLIDMDHEASFFGAFLVG
apoptosis specific cell death of U937 cells, times that of control (U937 human tumor cells [1]; conditioned media of transfected 293 cells, two independent experiments (FIG. 9B)): 7 times that of control | induction of apoptosis of U937 cells, in words (U937 human tumor cells [1]; mammalian expressed TRAIL supernatants, commercial human TRAIL and Fas ligand 100 ng/ml (FIGS. 19B, 20B, 21B)): induced potent apoptosis | apoptosis of U937 cells (U937 human tumor cells [2]; conditioned media of transfected 293 cells, background 15-20% (FIG. 9C)): 45% | apoptosis of U937 cells (U937 human tumor cells [2]; experiment with bacteria expressed semi-purified TRAIL-Thio proteins (FIG. 12)): above 85% | effect on canine cell lines, in words (canine cell lines): very minimal
